Test results reported in PMC4118376 (Sensors (Basel, Switzerland), 2014).

B1: sdAb A10 (VHH)
VHH: EVQLQASGGGLVRAGGTLRLTCDATTPTFGSYAMGWFRQAPGKEREFVSAISWSGGDTYADSVKGRFTISRDNTRNRVYLQMNDLEPDDTAIYTCARTTARYYISKDAKDYDYWGQGTQVTVSS
notes: source: E. coli Rosetta (DE3), periplasm, purified (IMAC, size exclusion chromatography)
B2: sdAb D9 (VHH)
VHH: EVQLQASGGGLAQAGDSLRLSCAASIRTFGSYAMGWFRQAPGKEREFVAAISWSGGDTYADSAKGRFTISRDNAKNMMYLQMNSLAPEDTAVYFCAIVEAKYYISKDARDYGYWGQGTQVFVSS
notes: as for B1
B3: sdAb E2 (VHH)
VHH: EVQLQASGGGLVQAGGSLRLTCAASGRTFGSYAMGWFRQAPGKEREFVAAISWSGGDTYADSVKGRFTISRDNAKNTVYLQMNSLAPEDTAVYSCAAVGARYYISKDAKDYGYWGQGTQVTVSS
notes: as for B1
B4: sdAb F1 (VHH)
VHH: DVQLQASGGGLVQAGGSLRLTCAASLHTFGSYAMGWFRQAPGKEREFVAAISWSGGDTYSDSVKGRFTISRDNAKNTVYLQMNSLEPEDTAVYSCAAVEARYYISTDAKDYGYWGQGTQVTVSS
notes: as for B1
B5: sdAb H9-H11 (VHH)
VHH: DVQLQASGGGLVQPGGSLRLSCAASESAVRIGFMGWHRQAPGNQRERVAQISSTGLPTYADAVKGRFTISRDNTKNTVYLQMNSLNADDTAVYFCNARLYDGTSVWGQGTQVTVSS
notes: source: E. coli, periplasm, purified (IMAC, size exclusion chromatography)
B6: sdAb S222-A2 (VHH)
VHH: DVQLQASGGGLVEPGGSLRLSCAASGSAVSIGFMGWHRQAPGKQRERVAQISSTGIPNYADTVKGRFTISRDNTKNTMYLQMNSLNADDTAVYFCNARLYDGTSAWGQGTQVTVSS
notes: as for B5
B7: sdAb H12 (VHH)
VHH: EVQLQASGGGLVLTGGSLRLSCAASGRNFSNYAMAWFRQAPGKEREFVGTISWYTNTNYANSVKGRFSISRDNAKNTVYLQMSSLKPEDTAVYYCAAAPAMYYNPYTRESEYGYWGQGTQVTVSS
notes: as for B1
B8: sdAb E9 (VHH)
VHH: EVQLQASGGGLVQAGGSLRLSCAASGRDFSDYAMAWFRQAPGKEREFVGTISWYTNTNYADSVKGRFSISRDNAKNTVYLQMSSLKPEDTAVYYCAAAPARYYNPYKRESEYGYWGQGTQVTVSS
notes: as for B1
B9: sdAb H9-A1 (VHH)
VHH: EVQLQASGGGLVQPGGSLRLSCAASGSAVSIGFMAWYRQAPGKQRELVARISSSGLPDYADTVKGRFTISRDNTRKTVSLQMNSLNPDDTAVYYCNARLYDGSSAWGQGTQVTVSS
notes: as for B1
B10: sdAb H9-B11 (VHH)
VHH: DVQLQASGGGLVQVGGSLRLSCAASGSTFRIGYMGWYRQAPGKPRELVARISSGGTTDYLDFVKDRFTISRDNAKNTVYLQMSSLKPEDTAVYYCNVVNYRANEYWGQGTQVTVSS
notes: as for B5
B11: sdAb H9-D7 (VHH)
VHH: DVQLQASGGGLVQVGGSLRLSCAASGSTFRIGYMSWHRQAPGKSRELVARISSGGTTDYLDSVKDRFTISRDNTKNTVYLQMNSLEPEDTAVYYCNVVDYRANEYWGQGTQVAVSS
notes: as for B1
B12: sdAb B12 (VHH)
VHH: EVQLQASGGGLVQAGGPLRLTCAVSGPTFGSYALGWFRQAPGKEREFVAAVSWSGGDTYADSVKGRFIISRDNAKNTVYLQMNNLEPEDTAVYSCARMQDRYYISKDAKDYGYWGQGTQVTVSS
notes: as for B1
B13: sdAb B1 (VHH)
VHH: EVQLQASGGGLVQAGGSLRLTCAVSGPTFGSYALGWFRQAPGKEREFVAAVSWSGGDTYADTAKGRFIISRDNAKNTVYLQMNNLEPEDTAVYSCARMQDRYYISKDAKDYGYWGQGTQVIVSS
notes: as for B1
B14: sdAb H9 (VHH)
VHH: EVQLQASGGGLVQAGGSLRLTCAVSGPTFGSYALGWFRQAPGKEREFVAAVSWSGGDTYADSVKGRFIISRDNAKNTVYLQMNNLEPEDTAVYSCARMQDRYYISKDAKDYGYWGQETQVTVSS
notes: as for B1

What follows are binders tested against staphylococcal enterotoxin B (Staphylococcus aureus (strain not …, UniProt P01552)) (assay: SPR). Details: both partners purified.
Chain of staphylococcal enterotoxin B (Staphylococcus aureus (P01552 28-266): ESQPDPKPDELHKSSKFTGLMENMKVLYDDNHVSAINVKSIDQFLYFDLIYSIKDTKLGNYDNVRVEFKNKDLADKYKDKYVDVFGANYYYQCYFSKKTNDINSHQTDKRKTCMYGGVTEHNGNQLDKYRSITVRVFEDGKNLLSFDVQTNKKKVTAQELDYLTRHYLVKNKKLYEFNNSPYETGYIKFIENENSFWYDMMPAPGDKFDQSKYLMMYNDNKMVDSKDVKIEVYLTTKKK

| Binder | Kd [nM] | koff [s⁻¹] | kon [M⁻¹ s⁻¹] |
| --- | --- | --- | --- |
| B1 | 0.158 | 0.000277 | 1.76e+06 |
| B2 | 0.111 | 0.000277 | 2.49e+06 |
| B3 | 0.273 | 0.00351 | 1.28e+07 |
| B4 | 0.65 | 0.00042 | 646000 |
| B5 | 1.56 | 0.000755 | 485000 |
| B6 | 4.16 | 0.00506 | 1.22e+06 |
| B7 | 0.272 | 0.000607 | 2.23e+06 |
| B8 | 0.533 | 0.000589 | 1.11e+06 |
| B9 | 1.25 | 0.00227 | 1.8e+06 |
| B10 | 3.32 | 0.000512 | 154000 |
| B11 | 1.1 | 0.000192 | 174000 |
| B12 | 0.232 | 0.000321 | 1.39e+06 |
| B13 | 0.2 | 0.00039 | 1.95e+06 |
| B14 | 0.09 | 0.000318 | 3.53e+06 |
